Laboratory results taken from publication PMC5156306.

Biological target: WT CCR5 (5555), HA-tagged, on transfected HEK293T cells (UniProt P51681)
Experiment: competition assay, flow cytometry on cells
Settings: DyLight488-LukE 595 nM, LukD DN 565 nM, read off a plot
[1] = 74.5 nM unlabeled LukE variant, parent: est. 13
[2] = 149 nM unlabeled LukE variant, parent: est. 11
[3] = 298 nM unlabeled LukE variant, parent: est. 10
[4] = 596 nM unlabeled LukE variant, parent: est. 9.2

Substance	response [1] [MFI]	response [2] [MFI]	response [3] [MFI]	response [4] [MFI]
WT LukE LukE/LukS^DR1 (DR1, residues 57 to 75, replaced by the corresponding region of LukS-PV)	19	18	15	14
WT LukE LukE/LukS^DR2 (DR2, residues 140 to 150, replaced by the corresponding region of LukS-PV)	13	11	9.8	9
WT LukE LukE/LukS^DR3 (DR3, residues 164 to 178, replaced by the corresponding region of LukS-PV)	15	12	11	9.7
WT LukE LukE/LukS^DR4 (DR4, residues 182 to 196, replaced by the corresponding region of LukS-PV)	12	9.9	9.3	8.3
